Data published in patent US20210244795A1.

Tests used:
Assay in all cases: cell-based or functional assay
[1] = biological target: HIV envelope gp160 of TRO11 (pseudotyped virus) (HIV)
[2] = biological target: HIV envelope gp160 of CNE55 (pseudotyped virus) (HIV)
[3] = biological target: HIV envelope gp160 of CNE8 (pseudotyped virus) (HIV)
[4] = biological target: HIV envelope gp160 of CE0217 (pseudotyped virus) (HIV)
[5] = biological target: HIV envelope gp160 of BJOX2000 (pseudotyped virus) (HIV)
[6] = biological target: HIV envelope gp160 of CE1176 (pseudotyped virus) (HIV)
[7] = biological target: HIV envelope gp160 of 25710 (pseudotyped virus, Tier 2, clade C) (HIV)
[8] = biological target: HIV envelope gp160 of CH119 (pseudotyped virus) (HIV)
[9] = biological target: HIV envelope gp160 of X2278 (pseudotyped virus) (HIV)
[10] = biological target: HIV envelope gp160 of X1632 (pseudotyped virus) (HIV)
[11] = biological target: HIV envelope gp160 of 398F1 (pseudotyped virus) (HIV)
[12] = biological target: HIV envelope gp160 of 246F3 (pseudotyped virus) (HIV)
[13] = biological target: SIVmac239 envelope (pseudotyped virus, tier 3 isolate) (SIV)

| Substance | IC50, pseudovirus neutralization, TZM-bl assay, mouse sera [1] | IC50, pseudovirus neutralization, TZM-bl assay, mouse sera [2] | IC50, pseudovirus neutralization, TZM-bl assay, mouse sera [3] | IC50, pseudovirus neutralization, TZM-bl assay, mouse sera [4] | IC50, pseudovirus neutralization, TZM-bl assay, mouse sera [5] | IC50, neutralization of CE1176 pseudovirus, TZM-bl assay, mouse sera [6] | IC50, pseudovirus neutralization, TZM-bl assay, mouse sera [6] | IC50, neutralization of 25710 pseudovirus, TZM-bl assay, mouse sera [7] | IC50, pseudovirus neutralization, TZM-bl assay, mouse sera [7] | IC80, neutralization of 25710 pseudovirus, TZM-bl assay, mouse sera [7] | IC50, pseudovirus neutralization, TZM-bl assay, mouse sera [8] | IC50, pseudovirus neutralization, TZM-bl assay, mouse sera [9] | IC50, pseudovirus neutralization, TZM-bl assay, mouse sera [10] | IC50, pseudovirus neutralization, TZM-bl assay, mouse sera [11] | IC50, pseudovirus neutralization, TZM-bl assay, mouse sera [12] | IC50, pseudovirus neutralization, TZM-bl assay, mouse sera [13] | fold drop in IC50 against ReCD4-Ig without sulfation [6] | fold drop in IC50 against ReCD4-Ig without sulfation [7] | fold drop in IC80 against ReCD4-Ig without sulfation [7] |
| --- | --- | --- | --- | --- | --- | --- | --- | --- | --- | --- | --- | --- | --- | --- | --- | --- | --- | --- | --- |
| ReCD4-Ig (expressed from p-ReCD4-Ig alone, no co-delivered sulfotransferase) (Fc fusion) | < 5 µg/mL | < 5 µg/mL | < 5 µg/mL | < 5 µg/mL | < 5 µg/mL | 0.57 µg/mL | < 5 µg/mL | 1.09 µg/mL | < 5 µg/mL | 3.27 µg/mL | < 5 µg/mL | < 5 µg/mL | < 5 µg/mL | < 5 µg/mL | < 5 µg/mL | < 5 µg/mL |  |  |  |
| ReCD4-Ig sulfated by co-expressed IgE-TPST2 (Fc fusion) | < 5 µg/mL | < 5 µg/mL | < 5 µg/mL | < 5 µg/mL | < 5 µg/mL | 0.05 µg/mL | < 5 µg/mL | 0.16 µg/mL | < 5 µg/mL | 1.35 µg/mL | < 5 µg/mL | < 5 µg/mL | < 5 µg/mL | < 5 µg/mL | < 5 µg/mL |  | 10 fold | 6.8 fold | 2.4 fold |
